Starred links: 1 amine or outer side, 2 acyl side, 3 side chain; linkers in the order of their positions; H or OH if unused. Non-standard residues stand in square brackets, D forms with d. Groups on a side chain read outwards from the residue. No end group written: not given here. *: point of attachment. C20 diacid = O=C(O)CCCCCCCCCCCCCCCCCCC(=O)*; γGlu = O=C(O)[C@H](CCC(=O)[*:2])N[*:1]; αMeL = CC(C)C[C@](C)(N)C(=O)O; AEEA = NCCOCCOCC(=O)O; Aib = CC(C)(N)C(=O)O
T1: human glucose-dependent insulinotropic polypeptide (GIP) receptor (human, UniProt P48546 22-466)
T1 construct: whole, on cells; Assayed as crude membranes of stably transfected CHO cells; also called hGIPR; human GIP receptor
T1 sequence (looked up): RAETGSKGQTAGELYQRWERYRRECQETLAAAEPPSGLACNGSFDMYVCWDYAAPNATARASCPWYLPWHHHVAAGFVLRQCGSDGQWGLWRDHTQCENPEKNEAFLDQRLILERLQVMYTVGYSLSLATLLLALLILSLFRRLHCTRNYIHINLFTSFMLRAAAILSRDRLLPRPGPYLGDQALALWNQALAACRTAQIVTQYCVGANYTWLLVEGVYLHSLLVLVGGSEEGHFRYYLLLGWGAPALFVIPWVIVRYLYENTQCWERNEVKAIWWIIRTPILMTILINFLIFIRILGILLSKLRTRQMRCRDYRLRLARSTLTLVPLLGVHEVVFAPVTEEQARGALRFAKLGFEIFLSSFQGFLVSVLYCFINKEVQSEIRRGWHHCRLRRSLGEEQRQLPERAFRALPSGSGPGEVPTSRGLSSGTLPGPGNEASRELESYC


Experiments:
[1] = molecular target: T1, human glucose-dependent insulinotropic …; experiment: SPA, displacement of [125I]-GIP from hGIPR membranes, 0.1% bacitracin
human glucagon receptor = molecular target: T2, human glucagon receptor (human, UniProt P47871 26-477); experiment: SPA, displacement of [125I]-Gcg from hGcgR membranes, 0.1% bacitracin
T2 construct: whole, on cells; Assayed as crude membranes of stably transfected HEK293 cells; also called hGcgR; GcgR
Method in brief: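 Binding buffer: 25 mM HEPES pH 7.4, 2.5 mM CaCl₂, 1 mM MgCl₂, 0.003% Tween-20, protease inhibitors without EDTA. Counted by scintillation after 12 h incubation/settling at room temperature. Four-parameter nonlinear fit; Kᵢ given as geometric mean ± SEM of independent replicates run on different days.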

human GLP-1 receptor = molecular target: T3, human GLP-1 receptor (human, UniProt P43220 24-463); experiment: SPA, displacement of [125I]-GLP-1 from hGLP-1R membranes, 0.1% bacitracin
T3 construct: whole, on cells; Assayed as crude membranes of stably transfected HEK293 cells; also called hGLP1R; hGLP-1R
Method in brief: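 Binding buffer: 25 mM HEPES pH 7.4, 2.5 mM CaCl₂, 1 mM MgCl₂, 0.1% bacitracin, 0.003% Tween-20, protease inhibitors without EDTA. Four-parameter nonlinear regression; Kᵢ given as geometric mean ± SEM, n = independent replicates run on different days.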

T2 sequence (P47871 26-477): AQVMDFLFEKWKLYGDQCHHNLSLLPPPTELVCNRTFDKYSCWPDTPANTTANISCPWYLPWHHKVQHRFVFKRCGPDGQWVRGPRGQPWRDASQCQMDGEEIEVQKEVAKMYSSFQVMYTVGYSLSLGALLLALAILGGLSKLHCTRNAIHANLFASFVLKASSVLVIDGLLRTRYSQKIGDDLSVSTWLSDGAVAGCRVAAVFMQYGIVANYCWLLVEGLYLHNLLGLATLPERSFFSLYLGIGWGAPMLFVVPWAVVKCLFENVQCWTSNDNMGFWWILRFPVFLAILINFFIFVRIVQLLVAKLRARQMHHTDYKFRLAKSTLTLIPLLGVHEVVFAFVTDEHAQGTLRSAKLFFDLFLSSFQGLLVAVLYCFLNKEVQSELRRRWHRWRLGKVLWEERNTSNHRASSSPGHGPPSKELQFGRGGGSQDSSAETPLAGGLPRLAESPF

| Binder | Ki [1] | Ki (human glucagon receptor) | Ki (human GLP-1 receptor) |
| --- | --- | --- | --- |
| Y[Aib]EGTFISDYSI[αMeL]LDKK([AEEA-AEEA-γGlu-C20 diacid])HQ[Aib]EFVEYLLETGPSSGAPPPS-NH2 (N-terminus assumed; SMILES CC[C@H](C)[C@H](NC(=O)[C@H](Cc1ccccc1)NC(=O)[C@@H](NC(=O)CNC(=O)[C@H](CCC(=O)O)NC(=O)C(C)(C)NC(=O)[C@@H](N)Cc1ccc(O)cc1)[C@@H](C)O)C(=O)N[C@@H](CO)C(=O)N[C@@H](CC(=O)O)C(=O)N[C@@H](Cc1ccc(O)cc1)C(=O)N[C@@H](CO)C(=O)N[C@H](C(=O)N[C@@](C)(CC(C)C)C(=O)N[C@@H](CC(C)C)C(=O)N[C@@H](CC(=O)O)C(=O)N[C@@H](CCCCN)C(=O)N[C@@H](CCCCNC(=O)COCCOCCNC(=O)COCCOCCNC(=O)CC[C@H](NC(=O)CCCCCCCCCCCCCCCCCCC(=O)O)C(=O)O)C(=O)N[C@@H](Cc1c[nH]cn1)C(=O)N[C@@H](CCC(N)=O)C(=O)NC(C)(C)C(=O)N[C@@H](CCC(=O)O)C(=O)N[C@@H](Cc1ccccc1)C(=O)N[C@H](C(=O)N[C@@H](CCC(=O)O)C(=O)N[C@@H](Cc1ccc(O)cc1)C(=O)N[C@@H](CC(C)C)C(=O)N[C@@H](CC(C)C)C(=O)N[C@@H](CCC(=O)O)C(=O)N[C@H](C(=O)NCC(=O)N1CCC[C@H]1C(=O)N[C@@H](CO)C(=O)N[C@@H](CO)C(=O)NCC(=O)N[C@@H](C)C(=O)N1CCC[C@H]1C(=O)N1CCC[C@H]1C(=O)N1CCC[C@H]1C(=O)N[C@@H](CO)C(N)=O)[C@@H](C)O)C(C)C)[C@@H](C)CC) [Example 64] | 0.022 nM | 196 nM | 477 nM |
| Y[Aib]EGTFISDYSI[αMeL]LDKK([AEEA-AEEA-γGlu-C20 diacid])HQ[Aib]EFVEYLLEAGPSSGAPPPS-NH2 (N-terminus assumed; SMILES CC[C@H](C)[C@H](NC(=O)[C@H](Cc1ccccc1)NC(=O)[C@@H](NC(=O)CNC(=O)[C@H](CCC(=O)O)NC(=O)C(C)(C)NC(=O)[C@@H](N)Cc1ccc(O)cc1)[C@@H](C)O)C(=O)N[C@@H](CO)C(=O)N[C@@H](CC(=O)O)C(=O)N[C@@H](Cc1ccc(O)cc1)C(=O)N[C@@H](CO)C(=O)N[C@H](C(=O)N[C@@](C)(CC(C)C)C(=O)N[C@@H](CC(C)C)C(=O)N[C@@H](CC(=O)O)C(=O)N[C@@H](CCCCN)C(=O)N[C@@H](CCCCNC(=O)COCCOCCNC(=O)COCCOCCNC(=O)CC[C@H](NC(=O)CCCCCCCCCCCCCCCCCCC(=O)O)C(=O)O)C(=O)N[C@@H](Cc1c[nH]cn1)C(=O)N[C@@H](CCC(N)=O)C(=O)NC(C)(C)C(=O)N[C@@H](CCC(=O)O)C(=O)N[C@@H](Cc1ccccc1)C(=O)N[C@H](C(=O)N[C@@H](CCC(=O)O)C(=O)N[C@@H](Cc1ccc(O)cc1)C(=O)N[C@@H](CC(C)C)C(=O)N[C@@H](CC(C)C)C(=O)N[C@@H](CCC(=O)O)C(=O)N[C@@H](C)C(=O)NCC(=O)N1CCC[C@H]1C(=O)N[C@@H](CO)C(=O)N[C@@H](CO)C(=O)NCC(=O)N[C@@H](C)C(=O)N1CCC[C@H]1C(=O)N1CCC[C@H]1C(=O)N1CCC[C@H]1C(=O)N[C@@H](CO)C(N)=O)C(C)C)[C@@H](C)CC) [Example 65] | 0.0316 nM | 279 nM | 305 nM |
| Y[Aib]EGTFISDYSI[αMeL]LDKK([AEEA-AEEA-γGlu-C20 diacid])HQ[Aib]DFVEYLLETGPSSGAPPPS-NH2 (N-terminus assumed; SMILES CC[C@H](C)[C@H](NC(=O)[C@H](Cc1ccccc1)NC(=O)[C@@H](NC(=O)CNC(=O)[C@H](CCC(=O)O)NC(=O)C(C)(C)NC(=O)[C@@H](N)Cc1ccc(O)cc1)[C@@H](C)O)C(=O)N[C@@H](CO)C(=O)N[C@@H](CC(=O)O)C(=O)N[C@@H](Cc1ccc(O)cc1)C(=O)N[C@@H](CO)C(=O)N[C@H](C(=O)N[C@@](C)(CC(C)C)C(=O)N[C@@H](CC(C)C)C(=O)N[C@@H](CC(=O)O)C(=O)N[C@@H](CCCCN)C(=O)N[C@@H](CCCCNC(=O)COCCOCCNC(=O)COCCOCCNC(=O)CC[C@H](NC(=O)CCCCCCCCCCCCCCCCCCC(=O)O)C(=O)O)C(=O)N[C@@H](Cc1c[nH]cn1)C(=O)N[C@@H](CCC(N)=O)C(=O)NC(C)(C)C(=O)N[C@@H](CC(=O)O)C(=O)N[C@@H](Cc1ccccc1)C(=O)N[C@H](C(=O)N[C@@H](CCC(=O)O)C(=O)N[C@@H](Cc1ccc(O)cc1)C(=O)N[C@@H](CC(C)C)C(=O)N[C@@H](CC(C)C)C(=O)N[C@@H](CCC(=O)O)C(=O)N[C@H](C(=O)NCC(=O)N1CCC[C@H]1C(=O)N[C@@H](CO)C(=O)N[C@@H](CO)C(=O)NCC(=O)N[C@@H](C)C(=O)N1CCC[C@H]1C(=O)N1CCC[C@H]1C(=O)N1CCC[C@H]1C(=O)N[C@@H](CO)C(N)=O)[C@@H](C)O)C(C)C)[C@@H](C)CC) [Example 66] | 0.0866 nM | 279 nM | 326 nM |
| Y[Aib]EGTFISDYSI[αMeL]LDKK([AEEA-AEEA-γGlu-C20 diacid])HQ[Aib]DFVEYLLEAGPSSGAPPPS-NH2 (N-terminus assumed; SMILES CC[C@H](C)[C@H](NC(=O)[C@H](Cc1ccccc1)NC(=O)[C@@H](NC(=O)CNC(=O)[C@H](CCC(=O)O)NC(=O)C(C)(C)NC(=O)[C@@H](N)Cc1ccc(O)cc1)[C@@H](C)O)C(=O)N[C@@H](CO)C(=O)N[C@@H](CC(=O)O)C(=O)N[C@@H](Cc1ccc(O)cc1)C(=O)N[C@@H](CO)C(=O)N[C@H](C(=O)N[C@@](C)(CC(C)C)C(=O)N[C@@H](CC(C)C)C(=O)N[C@@H](CC(=O)O)C(=O)N[C@@H](CCCCN)C(=O)N[C@@H](CCCCNC(=O)COCCOCCNC(=O)COCCOCCNC(=O)CC[C@H](NC(=O)CCCCCCCCCCCCCCCCCCC(=O)O)C(=O)O)C(=O)N[C@@H](Cc1c[nH]cn1)C(=O)N[C@@H](CCC(N)=O)C(=O)NC(C)(C)C(=O)N[C@@H](CC(=O)O)C(=O)N[C@@H](Cc1ccccc1)C(=O)N[C@H](C(=O)N[C@@H](CCC(=O)O)C(=O)N[C@@H](Cc1ccc(O)cc1)C(=O)N[C@@H](CC(C)C)C(=O)N[C@@H](CC(C)C)C(=O)N[C@@H](CCC(=O)O)C(=O)N[C@@H](C)C(=O)NCC(=O)N1CCC[C@H]1C(=O)N[C@@H](CO)C(=O)N[C@@H](CO)C(=O)NCC(=O)N[C@@H](C)C(=O)N1CCC[C@H]1C(=O)N1CCC[C@H]1C(=O)N1CCC[C@H]1C(=O)N[C@@H](CO)C(N)=O)C(C)C)[C@@H](C)CC) [Example 68] | 0.0948 nM | 290 nM | 421 nM |
| Y[Aib]EGTFISDYSI[αMeL]LDKK([AEEA-AEEA-γGlu-C20 diacid])HQ[Aib]DFVEWLLETGPSSGAPPPS-NH2 (N-terminus assumed; SMILES CC[C@H](C)[C@H](NC(=O)[C@H](Cc1ccccc1)NC(=O)[C@@H](NC(=O)CNC(=O)[C@H](CCC(=O)O)NC(=O)C(C)(C)NC(=O)[C@@H](N)Cc1ccc(O)cc1)[C@@H](C)O)C(=O)N[C@@H](CO)C(=O)N[C@@H](CC(=O)O)C(=O)N[C@@H](Cc1ccc(O)cc1)C(=O)N[C@@H](CO)C(=O)N[C@H](C(=O)N[C@@](C)(CC(C)C)C(=O)N[C@@H](CC(C)C)C(=O)N[C@@H](CC(=O)O)C(=O)N[C@@H](CCCCN)C(=O)N[C@@H](CCCCNC(=O)COCCOCCNC(=O)COCCOCCNC(=O)CC[C@H](NC(=O)CCCCCCCCCCCCCCCCCCC(=O)O)C(=O)O)C(=O)N[C@@H](Cc1c[nH]cn1)C(=O)N[C@@H](CCC(N)=O)C(=O)NC(C)(C)C(=O)N[C@@H](CC(=O)O)C(=O)N[C@@H](Cc1ccccc1)C(=O)N[C@H](C(=O)N[C@@H](CCC(=O)O)C(=O)N[C@@H](Cc1c[nH]c2ccccc12)C(=O)N[C@@H](CC(C)C)C(=O)N[C@@H](CC(C)C)C(=O)N[C@@H](CCC(=O)O)C(=O)N[C@H](C(=O)NCC(=O)N1CCC[C@H]1C(=O)N[C@@H](CO)C(=O)N[C@@H](CO)C(=O)NCC(=O)N[C@@H](C)C(=O)N1CCC[C@H]1C(=O)N1CCC[C@H]1C(=O)N1CCC[C@H]1C(=O)N[C@@H](CO)C(N)=O)[C@@H](C)O)C(C)C)[C@@H](C)CC) [Example 71] | 0.0422 nM | 102 nM | 347 nM |

From patent US20210032299A1 (Eli Lilly, published 2021)
